Source: patent publication US20120302737A1 (Genentech, published 2012)

B1: wild-type α-EGFR antibody (D1.5) (antibody, human IgG1, kappa, V domains shown)
VH: EVQLVESGGGLVQPGGSLRLSCAASGFTFTGNWIHWVRQAPGKGLEWVGEISPSGGYTDYADSVKGRFTISADTSKNTAYLQMNSLRAEDTAVYYCARESRVSYEAAMDYWGQGTLVTVSS
VL: DIQMTQSPSSLSASVGDRVTITCRASQDVSTAVAWYQQKPGKAPKLLIYSASFLYSGVPSRFSGSGSGTDFTLTISSLQPEDFATYYCQQSYPTPYTFGQGTKVEIKR
notes: also called Wt α-EGFR (D1.5); D1.5 anti-EGFR antibody
B2: one-armed α-EGFR engineered antibody (antibody)
heavy: not shown
chain: not shown
light: DIQMTQSPSSLSASVGDRVTITCRASQDVSTAVAWYQQKPGKAPKLLIYSASFLYSGVPSRFSGSGSGTDFTLTISSLQPEDFATYYCQQSYPTPYTFGQGTKVEIKRTVAAPSVFIFPPSDEQLKSGTASVVCLLNNFYPREAKVQWKVDNALQSGNSQESVTEQDSKDSTYSLSSTLTLSKADYEKHKVYACEVTHQGLSSPVTKSFNRGEC
notes: also called 1-armed α-EGFR; One-Armed EGFR

How the values were obtained:
[1] = biological target: T1, EGFR on cells (NR6 expressing EGFR; HCA7) (UniProt P00533 25-1210, limits assumed); experiment: equilibrium binding on HCA7 cells co-expressing EGFR and HER2, radiolabeled antibody competed with unlabeled antibody
T1 construct: whole, on cells; also called EGFR-NR6; EGFR-expressing NR6 cells

HER2 receptor ECD [2] = biological target: T2, HER2 receptor ECD (UniProt P04626 23-652, limits assumed); experiment: Octet; antibody loaded on the probe, 1st antigen HER2
T2 construct: extracellular domain; also called HER2ECD; HER2 extracellular domain

[3] = biological target: T1, EGFR on cells (NR6 expressing EGFR; …); experiment: equilibrium binding on NR6 cells expressing EGFR, radiolabeled antibody competed with unlabeled antibody
HER2 receptor ECD [4] = biological target: T2, HER2 receptor ECD; experiment: Octet; loaded probe, 1st antigen HER2

Row | Binder | Kd [1] | binding result (HER2 receptor ECD [2]) | Kd [3] | binding result (HER2 receptor ECD [4])
1 | B1 | 0.34 nM | no binding | 0.56 nM | –
2 | B2 | – | – | 1.15 nM | no binding
